One substance from US20060258570A1 can be followed below.

This assay has as its target fibrinogen. Description: cell-based or functional assay.

In turn, decorin core protein registered a Final Abs (405 nm) of thrombin-induced clot at [Decorin] 0.2 mM of 0.16 Abs 405 nm, a Final Abs (405 nm) of thrombin-induced clot at [Decorin] 0.4 mM of 0.145 Abs 405 nm, a Final Abs (405 nm) of thrombin-induced clot at [Decorin] 1.0 mM of 0.12 Abs 405 nm and a Final Abs (405 nm) of thrombin-induced clot at [Decorin] 2.0 mM of 0.113 Abs 405 nm. This substance had a Rate (mAbs/min) of thrombin-induced clotting at [Decorin] 0.2 mM of 61.8 mAbs/min, a Rate (mAbs/min) of thrombin-induced clotting at [Decorin] 0.4 mM of 55 mAbs/min, a Rate (mAbs/min) of thrombin-induced clotting at [Decorin] 1.0 mM of 38.8 mAbs/min and a Rate (mAbs/min) of thrombin-induced clotting at [Decorin] 2.0 mM of 34.5 mAbs/min.
